{"source": "paper PMC8602370", "origin": "cited, not measured here", "target": "PARP1 (Homo sapiens) (UniProt P09874)", "sequence (P09874 2-1014)": "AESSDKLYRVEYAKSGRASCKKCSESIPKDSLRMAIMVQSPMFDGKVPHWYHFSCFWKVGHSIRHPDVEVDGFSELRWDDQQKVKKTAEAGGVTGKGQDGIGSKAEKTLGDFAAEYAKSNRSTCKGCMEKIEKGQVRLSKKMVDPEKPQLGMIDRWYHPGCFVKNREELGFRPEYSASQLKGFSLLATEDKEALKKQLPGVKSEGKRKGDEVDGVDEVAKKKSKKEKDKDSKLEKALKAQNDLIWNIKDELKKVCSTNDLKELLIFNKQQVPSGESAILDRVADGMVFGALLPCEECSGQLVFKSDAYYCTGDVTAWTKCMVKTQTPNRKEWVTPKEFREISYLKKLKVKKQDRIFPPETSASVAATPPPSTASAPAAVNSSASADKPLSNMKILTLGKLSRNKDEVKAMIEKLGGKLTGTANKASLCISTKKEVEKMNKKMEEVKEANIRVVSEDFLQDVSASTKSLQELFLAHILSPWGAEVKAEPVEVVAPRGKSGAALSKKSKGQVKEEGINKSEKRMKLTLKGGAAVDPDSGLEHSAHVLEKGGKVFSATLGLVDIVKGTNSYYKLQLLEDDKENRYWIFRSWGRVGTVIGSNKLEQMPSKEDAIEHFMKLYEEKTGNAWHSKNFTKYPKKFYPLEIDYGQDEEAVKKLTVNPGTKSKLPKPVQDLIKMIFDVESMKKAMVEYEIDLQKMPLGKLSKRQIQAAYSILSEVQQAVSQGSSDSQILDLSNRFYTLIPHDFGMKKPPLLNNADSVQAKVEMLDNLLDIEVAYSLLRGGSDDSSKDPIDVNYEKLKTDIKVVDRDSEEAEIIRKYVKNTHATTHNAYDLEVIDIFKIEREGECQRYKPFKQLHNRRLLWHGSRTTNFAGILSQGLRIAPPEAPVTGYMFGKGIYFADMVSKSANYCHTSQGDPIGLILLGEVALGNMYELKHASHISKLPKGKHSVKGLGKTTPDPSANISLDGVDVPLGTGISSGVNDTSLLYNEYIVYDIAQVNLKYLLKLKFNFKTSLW", "data": [{"substance": "HPF1 (from UniProt Q9NWY4)", "values": [{"measurement": "Kd", "value": 3.5, "unit": "µM"}]}]}
